Laboratory results published in patent US20230140976A1 (OREGON HEALTH AND SCIENCE UNIVERSITY, published 2023).
Each block holds one binder with its values, some of them ahead of it.

Experiments:
[1] = biological target: T1, dog dystroglycan (DG) (MDCK cells) (dog, UniProt Q9TSZ6 28-892); assay: not described; MDCK cells
T1 construct: whole, on cells; also called dog DG
T1 sequence (looked up): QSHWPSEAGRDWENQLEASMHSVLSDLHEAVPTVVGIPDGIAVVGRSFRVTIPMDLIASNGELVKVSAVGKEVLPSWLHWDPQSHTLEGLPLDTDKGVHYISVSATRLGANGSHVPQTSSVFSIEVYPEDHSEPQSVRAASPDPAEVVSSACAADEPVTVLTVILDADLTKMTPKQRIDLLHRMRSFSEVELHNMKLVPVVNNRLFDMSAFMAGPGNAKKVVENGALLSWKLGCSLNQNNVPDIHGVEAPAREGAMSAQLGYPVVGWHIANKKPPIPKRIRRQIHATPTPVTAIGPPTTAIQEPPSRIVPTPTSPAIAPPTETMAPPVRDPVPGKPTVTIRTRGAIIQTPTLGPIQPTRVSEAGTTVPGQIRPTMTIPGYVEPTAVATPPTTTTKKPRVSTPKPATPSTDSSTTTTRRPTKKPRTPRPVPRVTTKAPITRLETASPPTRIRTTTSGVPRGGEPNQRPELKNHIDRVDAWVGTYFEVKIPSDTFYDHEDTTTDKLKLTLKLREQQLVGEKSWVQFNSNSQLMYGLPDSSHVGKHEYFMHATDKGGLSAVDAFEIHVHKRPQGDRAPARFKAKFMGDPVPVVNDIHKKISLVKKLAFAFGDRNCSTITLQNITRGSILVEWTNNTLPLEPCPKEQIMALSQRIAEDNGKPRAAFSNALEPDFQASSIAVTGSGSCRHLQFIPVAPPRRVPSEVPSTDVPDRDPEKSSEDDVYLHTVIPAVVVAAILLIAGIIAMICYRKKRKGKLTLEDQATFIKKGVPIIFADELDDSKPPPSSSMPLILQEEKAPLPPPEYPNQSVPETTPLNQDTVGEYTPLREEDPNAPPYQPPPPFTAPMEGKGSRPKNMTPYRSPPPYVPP

[2] = biological target: T2, human dystroglycan (DG) heterodimer of α-DG and β-DG (human, UniProt Q14118 30-653; Q14118 654-895, variable O- and N-glycosylation of α-DG (sites listed in paragraph 55)); assay: live-cell immunofluorescence on UMUC3, UMUC5, UMUC9 and UMUC10
T2 construct: In the immunoprecipitations it came from lysates of surface-biotinylated cells; also called DAG1; Dystrophin-Associated Glycoprotein 1
T2 sequence 1: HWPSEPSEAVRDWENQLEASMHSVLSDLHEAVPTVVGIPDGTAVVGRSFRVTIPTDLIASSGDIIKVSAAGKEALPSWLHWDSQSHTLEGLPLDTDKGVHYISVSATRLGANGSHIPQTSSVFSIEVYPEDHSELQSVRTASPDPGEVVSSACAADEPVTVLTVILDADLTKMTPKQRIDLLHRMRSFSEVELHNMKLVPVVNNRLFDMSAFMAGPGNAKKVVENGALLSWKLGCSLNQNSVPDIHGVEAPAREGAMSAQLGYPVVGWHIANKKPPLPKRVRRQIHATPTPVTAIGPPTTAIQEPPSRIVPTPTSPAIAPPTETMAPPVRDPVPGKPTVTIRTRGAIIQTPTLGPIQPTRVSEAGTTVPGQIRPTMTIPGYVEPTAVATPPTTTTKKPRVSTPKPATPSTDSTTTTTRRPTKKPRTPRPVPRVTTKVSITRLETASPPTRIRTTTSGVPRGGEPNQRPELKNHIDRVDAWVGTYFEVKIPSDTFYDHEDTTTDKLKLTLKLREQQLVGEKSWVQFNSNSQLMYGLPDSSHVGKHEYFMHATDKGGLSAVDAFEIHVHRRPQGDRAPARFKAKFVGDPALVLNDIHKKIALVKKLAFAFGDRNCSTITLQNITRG
T2 sequence 2: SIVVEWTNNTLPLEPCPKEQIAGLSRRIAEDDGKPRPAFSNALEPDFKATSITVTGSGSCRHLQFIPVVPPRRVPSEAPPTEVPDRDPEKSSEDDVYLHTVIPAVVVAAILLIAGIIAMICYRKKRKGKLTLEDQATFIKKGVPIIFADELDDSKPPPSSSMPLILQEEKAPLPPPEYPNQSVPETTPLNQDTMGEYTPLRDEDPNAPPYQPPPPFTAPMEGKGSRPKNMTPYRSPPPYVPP

[3] = biological target: T2, human dystroglycan (DG) heterodimer of …; assay: live-cell immunofluorescence on co-cultured MEpG cells with and without human DG (FIG. 3)
Experimental: Example 2. Screening for antibodies of interest by live cell binding and internalization. Antibody activity was measured as binding to the surface of living cells expressing the human DG protein (“positive” cells) but not to negative controls (cells derived from an engineered conditional DG knockout mouse lacking human DG expression). The positive population was the same cell line used for immunization, MEpG cells expressing the human DG protein. The negative population was the murine MEpG line expressing green fluorescent protein (GFP) and not the human DG protein, created as previously described in Oppizzi et al., Traffic, 9(12): 2063-2072, 2008. The positive and negative populations were co-cultured in wells of Ibidi 96-well micro-plates (Ibidi, catalog #89626) and distinguishable by GFP expression. Hybridoma supernatants to be tested were diluted 1:1 with plain DMEM:F12 cell culture medium (Gibco) and added to cell-containing wells of the 96-well Ibidi plates. Each well was incubated for 60 minutes at 37° C. with the hybridoma supernatants to be tested, washed with DMEM:F12 medium, and incubated 30 minutes at 37° C. with an anti-mouse secondary antibody conjugated to the Alexa-568 fluorescent dye (Jackson Immunochemicals) diluted 1:1000 in DMEM:F12 medium. […]

binding result [1]: no binding | binding result [2]: binds
B1: monoclonal antibody from hybridoma DG4H4 (ATCC Patent Deposit No. PTA-126594) (antibody, V domains shown)
VH: QVTLKESGPGILKPSQTLSLTCSFSGFSLSTSGMGVGWIRQPSGKGLEWLAHIWWDDDKYYNPSLKSQLTISKDTSRNQVFLKITSVDTADTATYYCARRAYYYGSSYPMDYWGQGTSVTVSS
VL: DIVLTQSPTSLAVSLGQRATFSCKASQSVDYDGDSYMNWYQQKPGQPPKLLIYAASNLDSGIPARFSGSGSGTDFTLNIHPVEEEDAATYYCQQSNEDPLTFGAGTKLELKR
notes: Mouse monoclonal antibody (Balb/c hybridoma); also called lane F

binding result [1]: no binding | binding result [3]: binds
B2: monoclonal antibody from hybridoma DG1A11 (ATCC Patent Deposit No. PTA-126595) (antibody, V domains shown)
VH: DVQLQESGPGLVKPSQSLSLTCTVTDYAITSDYAWNWIRQFPGNKLEWMGYISYSGSTSYSSSLKSRISITRDTSKNQFFLQLNSVTPEDTATYYCARAAPFTTLTDFFDYWGQGTTLTVSS
VL: DIVMTQSHKFMSTSVGDRVTITCKASQDVTTAVAWYQQKPGQSPKLLIYWASSRHTGVPDRFTGSGSGTDYTLTISSVQAEDLALYYCQQHYSTPYTFGGGTKLEIKR
notes: Mouse monoclonal antibody (Balb/c hybridoma); Tested as hybridoma supernatant or purified antibody; also called Antibody A; lane A
